These results are taken from article PMC7387800.

Usually stoichiometry N stands for a count of units in the complex or per binding partner.

For data set [1], the target named is VqmA-FLAG (Vibrio cholerae).
The target of data set [2] is VqmA-FLAG (Vibrio cholerae). Briefly: non-reducing SDS-PAGE with anti-FLAG immunoblot (disulfide-linked dimer); cells treated 1 h with 25 μM DPO, in the presence or absence of O2; lysate boiled in SDS-PAGE buffer without BME. On the technique in general: A western blot detects proteins with antibodies after separation by electrophoresis.
Data set [3] deals with 6xHis-VqmA C134A (Vibrio cholerae C6706?). Briefly: EMSA. (A gel shift assay detects complexes by their altered migration in electrophoresis.)
Data set [4] has as its system 6xHis-VqmA WT (Vibrio cholerae C6706?). Description: EMSA.

As to VqmA-FLAG (natural protein), in data set [1], the vqmR-lacZ reporter activity in ΔvqmA Δtdh V. cholerae carrying pvqmA-FLAG, with 25 μM DPO, with against without DTT amounted to 6 fold. In data set [2], this substance returned a percent of Holo-VqmA with the intermolecular C134-C134 disulfide bond of 40 to 50% and a stoichiometry N of 2.
In data set [3], vqmR promoter DNA (PvqmR) yielded a binding signal (fold reduction vs DTT-treated P2) of 4. Besides, the binding signal (fold more potent than diamide-treated P2) in data set [4] is 2.
